Consider 1 substance from US20120100142A1.

Assay in all cases: cell-based or functional assay
Experiment [1] deals with HA of influenza A/Weiss/43 (H1N1) virus (influenza A/Weiss/43 (H1N1) virus).
Experiment [2] has as its target HA of influenza A/Swine/Iowa/15/30 (H1N1) virus (influenza A/Swine/Iowa/15/30 (H1N1) virus).
The target in experiment [3] is HA of A/Mexico/4108/09 (2009 A (H1N1)) virus (influenza A/Mexico/4108/2009 (H1N1) virus).
The target in experiment [4] is HA of influenza A/USSR/92/77 (H1N1) virus (influenza A/USSR/92/77 (H1N1) virus).

Take mAb 1F1 (antibody): the neutralizing activity, specific activity in experiment [1] is 1.8 µg/mL; in experiment [4], 0.88 µg/mL. For the same substance, the Specific HAI activity in experiment [2] is 0.04 µg/mL. In experiment [3], the HAI, specific activity of indicated mAb was more than 5 µg/mL. Besides, the Neut Ab, specific activity of indicated mAb in experiment [3] is more than 5 µg/mL.
